Measured values as given in patent US20180291082A1.
Where two headings read alike, the source gives them in different places. Each block holds one binder with its values, some of them ahead of it.

Legend:
Assay in all cases: UV-ligand exchange, anti-b2m ELISA; exchange yield grade (+ >10%, ++ >20%, +++ >50, ++++ >75%)
HLA-B*44:02 (human) = target: HLA-B*44:02 (human)
HLA-A*01:01 (human) = conditions: remark: other sources report otherwise
HLA-A*03:01 (human) = target: HLA-A*03:01 (human)

Binder: AEGGKVPIKW (modifications not checked)
peptide exchange yield (HLA-B*44:02 (human)): 50 to 75%

Binder: QQATPGPAY
peptide exchange yield (HLA-B*44:02 (human); remark: other sources report otherwise): 20 to 50%

Further lines, results first:

peptide exchange yield (HLA-A*01:01 (human)): 50 to 75%
Binder: ITEKNSGLY

peptide exchange yield (HLA-A*03:01 (human)): 20 to 50%
Binder: KITDFGLAK (modifications not checked)
